Experimental data reported in publication PMC8800115.

Key:
[1] = target: K63-linked tetraubiquitin (UniProt P0CG48); test: ITC; MicroCal iTC200; proteins dialysed in 20 mM Hepes pH 7.5, 150 mM NaCl, 200 μM TCEP; 2-μl injections; who was in the cell is not given; ranges of Kd are from fits with N fixed to 1 (first value: active concentration in the cell varied, second: in the syringe); Kd of S470R and E467R/S470R called apparent
K63-linked diubiquitin = K63-linked diubiquitin (UniProt P0CG48); test: as above

Substance: ASCC2 CUE domain (construct of the ITC experiments of Figure 2) (from UniProt Q9H1I8 463-525) (domain or fragment)
- stoichiometry N (ASCC2 CUE domains per K63Ub4) [1]: 2
- Kd (K63-linked diubiquitin): 8.7 to 10.4 µM
- stoichiometry N (ASCC2 CUE domain per K63Ub2) (K63-linked diubiquitin): 1
